PMC12259117 (bioRxiv, 2025)
Numbering of substitutions follows the chain as printed. Names and notes keep the numbering of the source.

B1: 10-bp hairpin DNA (structured_DNA)
DNA: GCGTACATCATTCCCTGATGTACGC
B2: BsParB(A232G), full length (natural protein)
chain: MAKGLGKGINALFNQVDLSEETVEEIKIADLRPNPYQPRKHFDDEALAELKESVLQHGILQPLIVRKSLKGYDIVAGERRFRAAKLAGLDTVPAIVRELSEALMREIALLENLQREDLSPLEEAQAYDSLLKHLDLTQEQLAKRLGKSRPHIANHLRLLTLPENIQQLIAEGTLSMGHGRTLLGLKNKNKLEPLVQKVIAEQLNVRQLEQLIQQLNQNVPRETKKKEPVKDGVLKERESYLQNYFGTTVNIKRQKKKGKIEIEFFSNEDLDRILELLSERES
B3: BsParB(K259A), full length (natural protein)
chain: B2 chain with G232A, K259A
B4: BsParB(K256A), full length (natural protein)
chain: B2 chain with G232A, K256A
B5: BsParB(K257A), full length (natural protein)
chain: B2 chain with G232A, K257A
B6: BsParB(K252A-K255A-K259A) (natural protein)
chain: B2 chain with G232A, K252A, K255A, K259A
B7: BsParB(K252A-K259A) (natural protein)
chain: B2 chain with G232A, K252A, K259A
B8: BsParB(K252A), full length (natural protein)
chain: B2 chain with G232A, K252A
B9: BsParB(K255A), full length (natural protein)
chain: B2 chain with G232A, K255A

Tests used:
ParB CTD = molecular target: T1, ParB CTD (Bacillus subtilis, UniProt P26497 217-282); test: NMR
T1 sequence: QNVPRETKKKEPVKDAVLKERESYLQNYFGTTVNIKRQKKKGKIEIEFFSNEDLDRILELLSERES

SEC-MALS = molecular target: the molecule itself; test: SEC-MALS

Row | Binder | stoichiometry N (SEC-MALS) | further results
1 | B1 |  | binding result (ParB CTD): binds
2 | B2 | 2 | 
3 | B3 | 2 | 
4 | B4 | 2 | 
5 | B5 | 2 | 
6 | B6 |  | binding result (SEC-MALS): binds
7 | B7 |  | binding result (SEC-MALS): binds
8 | B8 | 2 | 
9 | B9 | 2 | 
